“And” between values parts separate entries of the source, which are not always exact repeats. Equal values may be shown once.

The assay addresses HIS6-GABARAP (human) (UniProt O95166). Description: native MS; proteins exchanged into ammonium acetate, nanoelectrospray, Synapt G2Si; C53 1-5 µM or IDR 2.5 µM with 5-20 µM ATG8A or GABARAP.

Sequence of HIS6-GABARAP (human) (O95166 whole entry): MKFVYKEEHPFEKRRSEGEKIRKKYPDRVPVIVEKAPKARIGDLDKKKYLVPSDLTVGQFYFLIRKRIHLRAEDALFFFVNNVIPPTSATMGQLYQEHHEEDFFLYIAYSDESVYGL
Sequence of HIS6-HsC53 (Q96JB5 whole entry): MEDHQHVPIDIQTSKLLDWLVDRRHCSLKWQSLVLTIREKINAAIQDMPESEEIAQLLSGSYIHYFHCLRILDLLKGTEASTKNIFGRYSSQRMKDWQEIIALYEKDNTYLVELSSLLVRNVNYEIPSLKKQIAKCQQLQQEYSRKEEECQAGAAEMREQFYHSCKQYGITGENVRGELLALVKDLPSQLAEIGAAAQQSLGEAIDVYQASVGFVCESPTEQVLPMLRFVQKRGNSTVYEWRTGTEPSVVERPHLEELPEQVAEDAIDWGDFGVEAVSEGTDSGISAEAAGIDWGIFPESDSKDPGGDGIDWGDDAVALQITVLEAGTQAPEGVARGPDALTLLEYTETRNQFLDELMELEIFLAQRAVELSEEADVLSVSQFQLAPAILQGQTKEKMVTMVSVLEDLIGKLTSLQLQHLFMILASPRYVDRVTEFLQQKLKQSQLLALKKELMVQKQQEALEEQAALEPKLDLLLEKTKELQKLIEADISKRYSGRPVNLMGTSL

For “HIS6-HsC53 (from UniProt Q96JB5 1-506) (natural protein)”, the stoichiometry N (GABARAP per HsC53) was 1 and 2.

Source of the values: PMC7515635.
